The values that follow come from article PMC8192741, “The Komagataeibacter europaeus GqqA is the prototype of a novel bifunctional N-Acyl-homoserine lactone acylase with prephenate dehydratase activity” (Scientific Reports, 2021).

One data set has as its target T1, SeGqqA (Komagataeibacter europaeus, UniProt A0A0M0ELU2, DEL86-170).
T1 construct: gene gqqA; selenomethionine-substituted GqqA; residues 86-170 lost by proteolysis during crystallization (not engineered; termini V85 and His171); made as full length with C-terminal TEV site and His6 tag in E. coli BL21(DE3)
T1 sequence (A0A0M0ELU2 with tags, fused parts or gaps DEL86-170): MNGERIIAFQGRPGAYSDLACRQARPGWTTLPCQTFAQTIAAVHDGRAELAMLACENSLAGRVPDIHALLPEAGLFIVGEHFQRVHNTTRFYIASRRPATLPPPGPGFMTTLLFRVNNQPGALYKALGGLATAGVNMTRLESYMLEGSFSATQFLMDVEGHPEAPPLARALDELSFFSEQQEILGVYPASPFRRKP
The data set is described as follows: X-ray crystal structure (SAD), […] Å. The settings on record: ACT regulatory domain; not added. The format is binding.

Another data set concerns the target T2, GqqA (Komagataeibacter europaeus, UniProt A0A0M0ELU2).
T2 construct: E. coli BL21(DE3); homodimer of 61 kDa; primers encode N-terminus MNGERIIA and C-terminus LRRKP; PDT domain 1-180, ACT domain 194-281
The data set is described as follows: X-ray crystal structure, […] Å. In kind it is binding. The settings on record: ACT regulatory domain at dimer interface, one per monomer; co-purified, not added.

Substrate in data set [1]: CCCCCC(=O)CC(=O)N[C@H]1CCOC1=O
The data set can be described thus: purified protein. The settings on record: 5 mM EPPS pH 8.0, 0.5 mM Phenol Red, 30 °C, substrate 0-65 mM. In kind it is biochemical, Komagataeibacter europaeus.

Substrate in data set [2]: CCCC(=O)CC(=O)N[C@H]1CCOC1=O
The data set can be described thus: purified protein. In kind it is biochemical, Komagataeibacter europaeus. The settings on record: 5 mM EPPS pH 8.0, 0.5 mM Phenol Red, 30 °C, substrate 0-65 mM.

Substrate in data set [3]: CCCCCCCCCC(=O)CC(=O)N[C@H]1CCOC1=O
The data set can be described thus: purified protein. The format is biochemical, Komagataeibacter europaeus. Particulars: 5 mM EPPS pH 8.0, 0.5 mM Phenol Red, 30 °C, substrate 0-65 mM.

Substrate in data set [4]: CCCCCCCC(=O)CC(=O)N[C@H]1CCOC1=O
The data set is described as follows: purified protein. The format is biochemical, Komagataeibacter europaeus. The settings on record: 5 mM EPPS pH 8.0, 0.5 mM Phenol Red, 30 °C, substrate 0-65 mM.

Data set [5] concerns the molecule itself. The data set can be described thus: dynamic light scattering; GqqA 3.6 mg/ml in 0.1 M K2HPO4 pH 5.0, 150 mM NaCl, 20 °C; hydrodynamic radius 3.9 ± 0.1 nm; long-term measurement at room temperature for 4 days.

As for `N[C@@H](Cc1ccccc1)C(=O)O` [L-Phe], the “X-ray crystal structure (SAD), 1.7 Å” value at SeGqqA is recorded as “L-Phe is also bound in the truncated SeGqqA”. Further, on GqqA, the “X-ray crystal structure, 2.5 Å” value was “within the dimer interface we identified two L-Phe molecules”.

B1: GqqA (enzyme, Komagataeibacter europaeus CECT 8546)
chain: MNGERIIAFQGRPGAYSDLACRQARPGWTTLPCQTFAQTIAAVHDGRAELAMLACENSLAGRVPDIHALLPEAGLFIVGEHFQRVEHCLLGIPGSTLADARRIHTHPVAMAQVRGIITELGLDPVVEFDTAGAAEMVREWGRKEDVAVASALAAELNGLEILRRNVEDATHNTTRFYIASRRPATLPPPGPGFMTTLLFRVNNQPGALYKALGGLATAGVNMTRLESYMLEGSFSATQFLMDVEGHPEAPPLARALDELSFFSEQQEILGVYPASPFRRKP
notes: GqqA, quorum quenching N-acyl-homoserine lactone acylase / prephenate dehydratase of Komagataeibacter europaeus CECT 8546; 281 amino acid residues, about 30.5 kDa; PDT domain 1-180, ACT domain 194-281; the gene was integrated in pET21a; no removal of the tag by TEV is described; also called native GqqA; GqqA wt; source: E. coli BL21 (DE3), purified (Ni-NTA, size-exclusion chromatography)
What is called Km is the substrate concentration at which the rate is half of its maximum. One may read the Vmax as the rate approached at saturating substrate. As usually defined, the stoichiometry N is a count of units in the complex or per binding partner. Take B1: the Michaelis constant (Km) in the data set “purified protein [1]” is 4.87 ± 0.12 mM; in the data set “purified protein [2]”, 6.89 ± 0.15 mM; in the data set “purified protein [3]” it was 16.7 ± 0.5 mM; in the data set “purified protein [4]”, 2.36 ± 0.35 mM. For the same molecule, the Vmax in “purified protein [1]” came to 117 µmol/min/mg; in “purified protein [2]” it was 109 µmol/min/mg; in the data set “purified protein [3]”, 13.8 µmol/min/mg; in the data set “purified protein [4]”, 152 µmol/min/mg. The Vmax/Km in “purified protein [1]” is 24100 µL/min/mg; in “purified protein [2]”, 15900 µL/min/mg; in the data set “purified protein [3]” it was 820 µL/min/mg; in the data set “purified protein [4]” it was 64500 µL/min/mg. Also, the “stoichiometry N” value in data set [5] is 2.
